Results on one molecule are retold here after publication PMC2944805, “A Major Determinant of Cyclophilin Dependence and Cyclosporine Susceptibility of Hepatitis C Virus Identified by a Genetic Approach” (PLoS Pathogens, 2010).

In this experiment the target is T1, 15N-labeled human CyPA (human, UniProt P62937 1-165, 15N-labeled).
T1 construct: human cyclophilin A (CyPA); also called cyclophilin A
Briefly: NMR titration; peptide added stepwise to 15N-labeled CyPA (~0.5 mM); 2D 1H,15N-HSQC, 22°C; 50 mM NaH2PO4/Na2PO4, pH 6.3, 40 mM NaCl, 2 mM EDTA, 1 mM DTT. Conditions: both partners purified.

B1: synthetic WT peptide, residues 304-323 of NS5A (peptide)
peptide: GFPRALPAWARPDYNPPLVE
notes: residues 304-323 of NS5A of HCV JFH-1 (genotype 2a); numbers count on: NS5A itself, not the polyprotein; also called 20-mer peptide (G304-E323); source: synthetic peptide, bought: NEO BioScience
As for B1, the binding result is listed as “binds”.
